In US20210187069A1:

Molecular target: T1, wildtype SARM1 (endogenous, in wildtype mouse dorsal root ganglion neurons) (mouse) (UniProt Q6PDS3)
T1 sequence (looked up): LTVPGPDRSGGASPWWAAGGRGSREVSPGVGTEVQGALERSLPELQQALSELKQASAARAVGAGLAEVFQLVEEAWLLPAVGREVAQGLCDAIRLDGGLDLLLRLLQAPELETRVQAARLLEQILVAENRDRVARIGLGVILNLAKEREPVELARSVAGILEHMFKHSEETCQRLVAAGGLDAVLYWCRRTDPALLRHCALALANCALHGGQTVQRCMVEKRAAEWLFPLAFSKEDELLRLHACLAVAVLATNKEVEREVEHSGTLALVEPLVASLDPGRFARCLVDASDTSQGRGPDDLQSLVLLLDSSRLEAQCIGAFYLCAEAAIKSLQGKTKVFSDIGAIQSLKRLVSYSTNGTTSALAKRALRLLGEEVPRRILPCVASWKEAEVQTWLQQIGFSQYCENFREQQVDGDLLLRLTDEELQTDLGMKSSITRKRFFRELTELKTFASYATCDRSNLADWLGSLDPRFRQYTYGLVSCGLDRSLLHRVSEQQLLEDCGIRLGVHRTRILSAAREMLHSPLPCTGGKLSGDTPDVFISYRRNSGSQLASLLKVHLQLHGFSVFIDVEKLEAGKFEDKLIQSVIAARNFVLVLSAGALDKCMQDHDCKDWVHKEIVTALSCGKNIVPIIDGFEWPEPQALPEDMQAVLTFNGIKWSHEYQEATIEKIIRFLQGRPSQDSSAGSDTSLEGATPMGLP
Test: cell-based or functional assay

B1: SARM1-deltaTIR (enzyme, not shown: large carriers)
chain: MLAVPGPDGGGGTGPWWAAGGRGPREVSPGAGTEVQDALERALPELQQALSALKQAGGARAVGAGLAEVFQLVEEAWLLPAVGREVAQGLCDAIRLDGGLDLLLRLLQAPELETRVQAARLLEQILVAENRDRVARIGLGVILNLAKEREPVELARSVAGILEHMFKHSEETCQRLVAAGGLDAVLYWCRRTDPALLRHCALALGNCALHGGQAVQRRMVEKRAAEWLFPLAFSKEDELLRLHACLAVAVLATNKEVEREVERSGTLALVEPLVASLDPGRFARCLVDASDTSQGRGPDDLQRLVPLLDSNRLEAQCIGAFYLCAEAAIKSLQGKTKVFSDIGAIQSLKRLVSYSTNGTKSALAKRALRLLGEEVPRPILPSVPSWKEAEVQTWLQQIGFSKYCESFREQQVDGDLLLRLTEEELQTDLGMKSGITRKRFFRELTELKTFANYSTCDRSNLADWLGSLDPRFRQYTYGLVSCGLDRSLLHRVSEQQLLEDCGIHLGVHRARILTAAREMLHSPLPCTGGKPSGDATT
With B1 as the binder, how does the axon degeneration (degeneration index) after axotomy of wildtype DRG neurons read?
Its axon degeneration (degeneration index) after axotomy of wildtype DRG neurons is 36 h.

B2: SARM1-K597E (enzyme, not shown: large carriers)
chain: LAVPGPDGGGGTGPWWAAGGRGPREVSPGAGTEVQDALERALPELQQALSALKQAGGARAVGAGLAEVFQLVEEAWLLPAVGREVAQGLCDAIRLDGGLDLLLRLLQAPELETRVQAARLLEQILVAENRDRVARIGLGVILNLAKEREPVELARSVAGILEHMFKHSEETCQRLVAAGGLDAVLYWCRRTDPALLRHCALALGNCALHGGQAVQRRMVEKRAAEWLFPLAFSKEDELLRLHACLAVAVLATNKEVEREVERSGTLALVEPLVASLDPGRFARCLVDASDTSQGRGPDDLQRLVPLLDSNRLEAQCIGAFYLCAEAAIKSLQGKTKVFSDIGAIQSLKRLVSYSTNGTKSALAKRALRLLGEEVPRPILPSVPSWKEAEVQTWLQQIGFSKYCESFREQQVDGDLLLRLTEEELQTDLGMKSGITRKRFFRELTELKTFANYSTCDRSNLADWLGSLDPRFRQYTYGLVSCGLDRSLLHRVSEQQLLEDCGIHLGVHRARILTAAREMLHSPLPCTGGKPSGDTPDVFISYRRNSGSQLASLLKVHLQLHGFSVFIDVEELEAGKFEDKLIQSVMGARNFVLVLSPGALDKCMQDHDCKDWVHKEIVTALSCGKNIVPIIDGFEWPEPQVLPEDMQAVLTFNGIKWSHEYQEATIEKIIRFLQGRSSRDSSAGSDTSLEGAAPMGPTATT
Which axon degeneration (degeneration index) after axotomy of wildtype DRG neurons does the source give for B2 here?
Its axon degeneration (degeneration index) after axotomy of wildtype DRG neurons is 36 h.

B3: SARM1-H685A/E642A (enzyme, not shown: large carriers)
chain: LAVPGPDGGGGTGPWWAAGGRGPREVSPGAGTEVQDALERALPELQQALSALKQAGGARAVGAGLAEVFQLVEEAWLLPAVGREVAQGLCDAIRLDGGLDLLLRLLQAPELETRVQAARLLEQILVAENRDRVARIGLGVILNLAKEREPVELARSVAGILEHMFKHSEETCQRLVAAGGLDAVLYWCRRTDPALLRHCALALGNCALHGGQAVQRRMVEKRAAEWLFPLAFSKEDELLRLHACLAVAVLATNKEVEREVERSGTLALVEPLVASLDPGRFARCLVDASDTSQGRGPDDLQRLVPLLDSNRLEAQCIGAFYLCAEAAIKSLQGKTKVFSDIGAIQSLKRLVSYSTNGTKSALAKRALRLLGEEVPRPILPSVPSWKEAEVQTWLQQIGFSKYCESFREQQVDGDLLLRLTEEELQTDLGMKSGITRKRFFRELTELKTFANYSTCDRSNLADWLGSLDPRFRQYTYGLVSCGLDRSLLHRVSEQQLLEDCGIHLGVHRARILTAAREMLHSPLPCTGGKPSGDTPDVFISYRRNSGSQLASLLKVHLQLHGFSVFIDVEKLEAGKFEDKLIQSVMGARNFVLVLSPGALDKCMQDHDCKDWVHKAIVTALSCGKNIVPIIDGFEWPEPQVLPEDMQAVLTFNGIKWSAEYQEATIEKIIRFLQGRSSRDSSAGSDTSLEGAAPMGPTATT
Which axon degeneration after 40 nM vincristine, wildtype DRG neurons does the source give for B3 here?
Its axon degeneration after 40 nM vincristine, wildtype DRG neurons is > 120 h.

B4: SARM1-K193R/H194A/H685A (SARM1-compound dominant negative) (enzyme, not shown: large carriers)
chain: LAVPGPDGGGGTGPWWAAGGRGPREVSPGAGTEVQDALERALPELQQALSALKQAGGARAVGAGLAEVFQLVEEAWLLPAVGREVAQGLCDAIRLDGGLDLLLRLLQAPELETRVQAARLLEQILVAENRDRVARIGLGVILNLAKEREPVELARSVAGILEHMFRASEETCQRLVAAGGLDAVLYWCRRTDPALLRHCALALGNCALHGGQAVQRRMVEKRAAEWLFPLAFSKEDELLRLHACLAVAVLATNKEVEREVERSGTLALVEPLVASLDPGRFARCLVDASDTSQGRGPDDLQRLVPLLDSNRLEAQCIGAFYLCAEAAIKSLQGKTKVFSDIGAIQSLKRLVSYSTNGTKSALAKRALRLLGEEVPRPILPSVPSWKEAEVQTWLQQIGFSKYCESFREQQVDGDLLLRLTEEELQTDLGMKSGITRKRFFRELTELKTFANYSTCDRSNLADWLGSLDPRFRQYTYGLVSCGLDRSLLHRVSEQQLLEDCGIHLGVHRARILTAAREMLHSPLPCTGGKPSGDTPDVFISYRRNSGSQLASLLKVHLQLHGFSVFIDVEKLEAGKFEDKLIQSVMGARNFVLVLSPGALDKCMQDHDCKDWVHKEIVTALSCGKNIVPIIDGFEWPEPQVLPEDMQAVLTFNGIKWSAEYQEATIEKIIRFLQGRSSRDSSAGSDTSLEGAAPMGPTATT
B4 was tested. Which axon degeneration (degeneration index) and TMRM-positive mitochondria after axotomy of wildtype DRG neurons did it give?
Its axon degeneration (degeneration index) and TMRM-positive mitochondria after axotomy of wildtype DRG neurons is > 96 h.

What about the axon degeneration after 40 nM vincristine, wildtype DRG neurons of the same binder?
Its axon degeneration after 40 nM vincristine, wildtype DRG neurons is > 120 h.

What about the axon degeneration and TMRM-positive mitochondria after 40 nM vincristine, wildtype DRG neurons of the same binder?
The axon degeneration and TMRM-positive mitochondria after 40 nM vincristine, wildtype DRG neurons was > 96 h.

B5: SARM1-K193R/H685A (enzyme, not shown: large carriers)
chain: LAVPGPDGGGGTGPWWAAGGRGPREVSPGAGTEVQDALERALPELQQALSALKQAGGARAVGAGLAEVFQLVEEAWLLPAVGREVAQGLCDAIRLDGGLDLLLRLLQAPELETRVQAARLLEQILVAENRDRVARIGLGVILNLAKEREPVELARSVAGILEHMFRHSEETCQRLVAAGGLDAVLYWCRRTDPALLRHCALALGNCALHGGQAVQRRMVEKRAAEWLFPLAFSKEDELLRLHACLAVAVLATNKEVEREVERSGTLALVEPLVASLDPGRFARCLVDASDTSQGRGPDDLQRLVPLLDSNRLEAQCIGAFYLCAEAAIKSLQGKTKVFSDIGAIQSLKRLVSYSTNGTKSALAKRALRLLGEEVPRPILPSVPSWKEAEVQTWLQQIGFSKYCESFREQQVDGDLLLRLTEEELQTDLGMKSGITRKRFFRELTELKTFANYSTCDRSNLADWLGSLDPRFRQYTYGLVSCGLDRSLLHRVSEQQLLEDCGIHLGVHRARILTAAREMLHSPLPCTGGKPSGDTPDVFISYRRNSGSQLASLLKVHLQLHGFSVFIDVEKLEAGKFEDKLIQSVMGARNFVLVLSPGALDKCMQDHDCKDWVHKEIVTALSCGKNIVPIIDGFEWPEPQVLPEDMQAVLTFNGIKWSAEYQEATIEKIIRFLQGRSSRDSSAGSDTSLEGAAPMGPTATT
How did the axon degeneration after axotomy of wildtype DRG neurons turn out when B5 was run?
Its axon degeneration after axotomy of wildtype DRG neurons is > 120 h.

B6: SARM1 D627K (enzyme, not shown: large carriers)
chain: LAVPGPDGGGGTGPWWAAGGRGPREVSPGAGTEVQDALERALPELQQALSALKQAGGARAVGAGLAEVFQLVEEAWLLPAVGREVAQGLCDAIRLDGGLDLLLRLLQAPELETRVQAARLLEQILVAENRDRVARIGLGVILNLAKEREPVELARSVAGILEHMFKHSEETCQRLVAAGGLDAVLYWCRRTDPALLRHCALALGNCALHGGQAVQRRMVEKRAAEWLFPLAFSKEDELLRLHACLAVAVLATNKEVEREVERSGTLALVEPLVASLDPGRFARCLVDASDTSQGRGPDDLQRLVPLLDSNRLEAQCIGAFYLCAEAAIKSLQGKTKVFSDIGAIQSLKRLVSYSTNGTKSALAKRALRLLGEEVPRPILPSVPSWKEAEVQTWLQQIGFSKYCESFREQQVDGDLLLRLTEEELQTDLGMKSGITRKRFFRELTELKTFANYSTCDRSNLADWLGSLDPRFRQYTYGLVSCGLDRSLLHRVSEQQLLEDCGIHLGVHRARILTAAREMLHSPLPCTGGKPSGDTPDVFISYRRNSGSQLASLLKVHLQLHGFSVFIDVEKLEAGKFEDKLIQSVMGARNFVLVLSPGALKKCMQDHDCKDWVHKEIVTALSCGKNIVPIIDGFEWPEPQVLPEDMQAVLTFNGIKWSHEYQEATIEKIIRFLQGRSSRDSSAGSDTSLEGAAPMGPTATT
How did the axon degeneration after axotomy turn out when B6 was run?
Its axon degeneration after axotomy is 24 h.

B7: SARM1-K193R/E642A (enzyme, not shown: large carriers)
chain: LAVPGPDGGGGTGPWWAAGGRGPREVSPGAGTEVQDALERALPELQQALSALKQAGGARAVGAGLAEVFQLVEEAWLLPAVGREVAQGLCDAIRLDGGLDLLLRLLQAPELETRVQAARLLEQILVAENRDRVARIGLGVILNLAKEREPVELARSVAGILEHMFRHSEETCQRLVAAGGLDAVLYWCRRTDPALLRHCALALGNCALHGGQAVQRRMVEKRAAEWLFPLAFSKEDELLRLHACLAVAVLATNKEVEREVERSGTLALVEPLVASLDPGRFARCLVDASDTSQGRGPDDLQRLVPLLDSNRLEAQCIGAFYLCAEAAIKSLQGKTKVFSDIGAIQSLKRLVSYSTNGTKSALAKRALRLLGEEVPRPILPSVPSWKEAEVQTWLQQIGFSKYCESFREQQVDGDLLLRLTEEELQTDLGMKSGITRKRFFRELTELKTFANYSTCDRSNLADWLGSLDPRFRQYTYGLVSCGLDRSLLHRVSEQQLLEDCGIHLGVHRARILTAAREMLHSPLPCTGGKPSGDTPDVFISYRRNSGSQLASLLKVHLQLHGFSVFIDVEKLEAGKFEDKLIQSVMGARNFVLVLSPGALDKCMQDHDCKDWVHKAIVTALSCGKNIVPIIDGFEWPEPQVLPEDMQAVLTFNGIKWSHEYQEATIEKIIRFLQGRSSRDSSAGSDTSLEGAAPMGPTATT
With B7 as the binder, how does the axon degeneration after 40 nM vincristine, wildtype DRG neurons read?
The axon degeneration after 40 nM vincristine, wildtype DRG neurons was > 120 h.
